Results published in PMC10963267, “Rapid discovery of high-affinity antibodies via massively parallel sequencing, ribosome display and affinity screening” (Nature Biomedical Engineering, 2023).
Changes are numbered by the printed parent chain. Names may count otherwise.

B1: anti-HER2 Fab HER20003 (Fab, V domains shown)
VH: QVQLVQSGAEVKKPGESLKISCKGSGYSFTSYWIAWVRQMPGKGLEYMGLIYPGDSDTKYSPSFQGQVTISVDKSVSTAYLQWSSLKPSDSAVYFCARHDVAYCSSSRCLTWPEYFQHWGQGTLVTVSS
VL: QSVLTQPPSVSAAPGQKVTISCSGSSSNIGNNYVSWYQQLPGTAPKLLIYGHTNRPAGVPDRFSGSKSGTSASLAISGFRSEDEADYYCASWDYTLSGWVFGGGTKLTVL
notes: as the heavy chain of m31 (G98A) with another CDR H3; as the light chain of m31; source: CHO cells, transiently transfected, purified (CaptureSelect CH1-XL)
B2: anti-HER2 Fab HER20015 (Fab, V domains shown)
VH: B1 VH with A102G, S105D, S106T, S107P, R108T, L110D, T111K
VL: B1 VL
notes: as the heavy chain of m31 (G98A) with another CDR H3; as the light chain of m31; From the ML set (ml/mut); source: CHO cells, transiently transfected, purified (CaptureSelect CH1-XL)
B3: anti-HER2 Fab HER20008 (Fab, V domains shown)
VH: B1 VH with S105D, S107D, L110A, T111K
VL: B1 VL
notes: as the heavy chain of m31 (G98A) with another CDR H3; as the light chain of m31; From the HER2affmat library; source: CHO cells, transiently transfected, purified (CaptureSelect CH1-XL)
B4: anti-HER2 Fab HER20025 (Fab, V domains shown)
VH: B1 VH with A102G, S105D, S106T, S107P, R108T, L110N, T111K
VL: B1 VL
notes: as the heavy chain of m31 (G98A) with another CDR H3; as the light chain of m31; From the random set (random/mut); source: CHO cells, transiently transfected, purified (CaptureSelect CH1-XL)
B5: anti-HER2 Fab HER20006 (Fab, V domains shown)
VH: B1 VH with A102G, Y103W, S105T, R108N, L110A, T111K
VL: B1 VL
notes: as for B3
B6: anti-HER2 Fab HER20007 (Fab, V domains shown)
VH: B1 VH with A102G, S105M, R108N, L110A, T111K
VL: B1 VL
notes: as for B3
B7: anti-HER2 Fab HER20010 (Fab, V domains shown)
VH: B1 VH with T111D
VL: B1 VL
notes: as for B3
B8: anti-HER2 Fab HER20013 (Fab, V domains shown)
VH: B1 VH with A102G, S106T
VL: B1 VL
notes: as the heavy chain of m31 (G98A) with another CDR H3; as the light chain of m31; Top clone of the ML set (ml/mut); source: CHO cells, transiently transfected, purified (CaptureSelect CH1-XL)
B9: anti-HER2 Fab HER20004 (Fab, V domains shown)
VH: B1 VH with A102G, Y103Q, S105D, R108N, L110A, T111K
VL: B1 VL
notes: as for B1
B10: anti-HER2 Fab HER20009 (Fab, V domains shown)
VH: B1 VH with T111E
VL: B1 VL
notes: as for B3
B11: anti-HER2 Fab HER20011 (Fab, V domains shown)
VH: B1 VH with A102G, Y103L, R108N, L110A, T111K
VL: B1 VL
notes: as for B3
B12: anti-HEL nanobody C1 (VHH)
VHH: QVQLQESGGGLVQAGGSLRLSCAASGSIFWAGYMGWYRQAPGKEREFVAAIDYGANTYYADSVKGRFTISRDNAKNTVYLQMNSLKPEDTAVYYCAVDRQPYYRRDNSHLYWGQGTQVTVSS
notes: synthetic nanobody from the yeast surface display library, picked as a random colony after R3 MACS; Framework is that of the library; source: E. coli, periplasmic extract (vector pSBinit)
B13: anti-HEL nanobody M15 (VHH)
VHH: QVQLQESGGGLVQAGGSLRLSCAASGTISSQKLMGWYRQAPGKEREFVAAINDGATTNYADSVKGRFTISRDNAKNTVYLQMNSLKPEDTAVYYCAAYYDVRGYYWGTFGYWGQGTQVTVSS
notes: synthetic nanobody from the yeast surface display library; also called VHH-M15; source: E. coli, periplasmic extract (vector pSBinit)
B14: anti-HEL nanobody M5 (VHH)
VHH: QVQLQESGGGLVQAGGSLRLSCAASGSIFYYTDMGWYRQAPGKEREFVASIGYGGITYYADSVKGRFTISRDNAKNTVYLQMNSLKPEDTAVYYCAVQRSFESYGYWGHVYWGQGTQVTVSS
notes: synthetic nanobody from the yeast surface display library; also called VHH-M5; source: E. coli, periplasmic extract (vector pSBinit)
B15: anti-HEL nanobody M6 (VHH)
VHH: B14 VHH with F29S, Y30R, Y31D, T32P, G52S, Y53G, G55T, I56T
notes: synthetic nanobody from the yeast surface display library; also called VHH-M6; source: E. coli, periplasmic extract (vector pSBinit)
B16: anti-HEL nanobody C2 (VHH)
VHH: QVQLQESGGGLVQAGGSLRLSCAASGNISADASMGWYRQAPGKEREFVAAIARGATTYYADSVKGRFTISRDNAKNTVYLQMNSLKPEDTAVYYCAVDQYDVTKRYIGHIYWGQGTQVTVSS
notes: as for B12

These binders were tested against T1, human epidermal growth factor receptor 2 (HER2), biotinylated (Homo sapiens, UniProt P04626, biotin) (assay: BLI; human HER2–biotin (5 µg ml^−1, 30 s) loaded on SA tip; purified Fab at 20 nM; DPBS with 0.1% BSA and 0.02% Tween 20; association 300 s, dissociation 600 s; one concentration, 1:1 fit). Conditions: both partners purified.
T1 construct: biotinylated human HER2, bought; also called ERBB2; source: bought: Acro Biosystems (HE2-H822R)

Kd [nM] | fold improvement in affinity over G98A [fold] | binding result | Binder
2.8 |  |  | B1
 | > 1000 |  | B2
 |  | binds | B3
0.283 |  |  | B4
 | ~300 |  | B5
 |  | binds | B6
 | ~300 |  | B7
0.0607 |  |  | B8
3.4 |  |  | B9
 | ~300 |  | B10
 |  | binds | B11

What follows are binders tested against T2, hen egg lysozyme (HEL), biotinylated (Gallus gallus (hen egg white), UniProt P00698, biotin) (assay: BLI; HEL–biotin (25 µg ml^−1, 400 s) loaded on SA tip; nanobody from periplasmic extract at 50 nM in SuperBlock PBS; association 400 or 500 s, dissociation 600 s; referenced to a non-loaded SA tip; one concentration, 1:1 fit; Octet Red384). Conditions: one partner purified.
T2 construct: hen egg lysozyme, bought as HEL–biotin; In deep screening it was pre-complexed 1:1 with AF532-labelled streptavidin; in BLI it was loaded on a streptavidin tip; source: bought: GeneTex (GTX82960-pro)
T2 sequence (P00698 19-147): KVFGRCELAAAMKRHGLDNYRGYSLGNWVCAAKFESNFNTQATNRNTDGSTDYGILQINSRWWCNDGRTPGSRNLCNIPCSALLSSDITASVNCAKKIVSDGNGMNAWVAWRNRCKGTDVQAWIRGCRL

binding result | Kd [nM] | Binder
binds |  | B12
 | 9.81 | B13
 | 19 | B14
 | 14.2 | B15
binds |  | B16
